# Test: yeast display, Sf9 membrane polyspecificity reagent, FACS + sequencing; frameworks hold sequencing errors
# Outline: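 Genes from sorted yeast were amplified by colony PCR, read by MiSeq 2 × 250 sequencing and filtered on CDR length. These cells carried a synthetic nanobody library in Saccharomyces cerevisiae BJ5465 and were sorted by FACS into low and high (top ~1%) gates on anti-HA and streptavidin fluorescence. Polyreactivity is labelled according to the gate of origin.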
row,Sequence,polyreactivity (PSR sort gate)
1,QVQLVESGGGLVQAGGSLRLSCAASGRTFTTYAMGWYRQAPRKERELVASISRRGGSTYYADSVKGRFTISRDNAKNTVYLQMNSLKPEDTAVYYCNAGGVRKYGYWGQGTQVTVSS,high polyreactivity
2,QVQLVESGGGLVQAGGSLRLSCAASGRTFTVNAMGWYRPAPGKERELVAAISGRSGRTSYADSVKGRFTISRDNAKNNVYLQMNSLKPEDTAVYSCNASGGYSTGSRFEYWGQGTQVTVSS,high polyreactivity
3,QVQLVESGGGLVQAGGSLRLSCAASGRTFTWNAMGWYRQAPGKERELVADITNNGGSTYYADSVKGRFTISRDNATNTVYLQMNSLKPEDTAVYYCDNRRNYWFSFDYWGQGTQVTVSS,low polyreactivity
4,QVQLVESGGGLVQAGGSLRLSCAASGRTFTWYTMGCYIQAPGKERELVAAISGSGSRTYYADSVKGRFTISRDNAKNTVYLQMNSLKPEDTAVYYCAKDKSARYRYDYWGQGTQVTVSS,low polyreactivity
5,QVQLVESGGGLVQAGGSLRLSCAASGRTFTYNAMGWYRQAPGKERELVASITWSGGRTYYADSVKGRFTISRDNAKNTVYLQMNSLKPEDTAVYYCAAYRWWGYITGVRGAKSIFDYWGQGTQVTVSS,high polyreactivity
6,QVQLVESGGGLVQAGGSLRLSCAASGRTFTYNTMGWYRQAPGKERELVAAISSRGGRTYYADSVKGRFTISRDNAKNTVYLQLNSLKPEDTAVYACAVYGYYALTHWEYDYWGQGTQVTVSS,high polyreactivity
7,QVQLVESGGGLVQAGGSLRLSCAASGRTFTYYAMGWYRQAPGKERELVADINRSGGDTYYADSVKGRFTISRDNAKNTVYLQMNSLKPEDTAVYYCAADDWGAQHRYDYWGQGTQVTVSS,low polyreactivity
8,QVQLVESGGGLVQAGGSLRLSCAASGRTFTYYAMGWYRQAPGKERELVARISSSGSTNYADSVKGRFTISRDNAKNTVYLQMNSLKPEDTAVYYCAARYWRGPRYDYWGQGTQVTVSS,high polyreactivity
9,QVQLVESGGGLVQAGGSLRLSCAASGRTFTYYAMGWYRQAPGKERKLVAAISQRGGGTYYADSVKGRFTISRDNAKNTVYLQMNSLKPEDTAVYYCAARWRLSGYDYWGQGTQVTVSS,high polyreactivity
10,QVQLVESGGGLVQAGGSLRLSCAASGRTFVDNAMGWYRHAPGKERELVAAISSGGTTNYADSVKGRFTISRDNAKNTVYLQMNSLKPEDTAVYYCNTVATYLRSGYGYWGQGTQVTVSS,low polyreactivity
11,QVQLVESGGGLVQAGGSLRLSCAASGRTFVDYVMGWYRQAPGKERELVAAISRSGSTYYADSVKGRFTISRDNAKNTVYLQMNSLKPEDTAVYYCAASSVALPWYVSWYVYGYEYWGQGTQVTVSS,low polyreactivity
12,QVQLVESGGGLVQAGGSLRLSCAASGRTFVFNAMGWYRQAPGKERELVAGISGSGGSTYYADSVKGRFTISRDNAKNTVYLQMNSLKPEDTAVYYCATKFPRKELDQDSVSGLGYWGQGTQVTVSS,low polyreactivity
13,QVQLVESGGGLVQAGGSLRLSCAASGRTFVGNVMGWYRQAPGKERELVAAINRDASTNYADSVKGRFTISRDNAKNTVYLQMNSLKPEDTAVYYCATRRGFFDIFYGGYDYWGQGTQVTVSS,low polyreactivity
14,QVQLVESGGGLVQAGGSLRLSCAASGRTFVGYAMGWYRQAPGKERELVAAISRRGGSTYYADSVKGRFTISRDYAKKTVYLQMNSLKPEDTAVYYCARDYGGVGAPGSAGAYDYWGQGTQVTVSS,high polyreactivity
15,QVQLVESGGGLVQAGGSLRLSCAASGRTFVGYAMGWYRQAPGKERELVAAISWSGGRTYYADSVKGRFTISRDNAKNTVYLQMNSLKPEDTAVYYCAALLYRTPYYPYYGYDYWGQGTQVTVSS,high polyreactivity
16,QVQLVESGGGLVQAGGSLRLSCAASGRTFVGYAMGWYRQSPGKERELVAAISTSGGRTYYADSVKGRFTISRDNAKYTVYLQMNSLKPEDTAVYYCAAGFRASIGYVTEYYWGQGTQVTVTS,high polyreactivity
17,QVQLVESGGGLVQAGGSLRLSCAASGRTFVGYPIGWYRQAPGKESELVATITNDAITNADSVKGRFTISRDNAKNTVYLQMNSLKPEDTAVYYCNTRYSYGTAYEQYRYKALYDYWGQGTQVTVSS,low polyreactivity
18,QVQLVESGGGLVQAGGSLRLSCAASGRTFVINAMGWYRQAPGKERELVAAISRGGSTNYADSVKGRFTISRDNAKNTVYLQMNSLKPEDTAVYYCNADYPNWWSPFDYWGQGTQVTVSS,low polyreactivity
19,QVQLVESGGGLVQAGGSLRLSCAASGRTFVKNAMGWYRQAPGKERELVAAIDRGSRTNYADSVKGRFTISRDNAKNTVYLQMNSLKPEDTAVYYCATRYRVRDDQTGTWSIFGYWGQGTQVTVSS,high polyreactivity
20,QVQLVESGGGLVQAGGSLRLSCAASGRTFVKNAMGWYRQAPGKERELVAAISRTGSTNYADSVKGRFTISRDNAKNTVYLQMNSLKPEDTAVYYCAAVRYDYWGQGTQVTVSS,low polyreactivity

row,Sequence,polyreactivity (PSR sort gate)
1,QVQLVESGGGLVQAGGSLRLSCAASGRTFVLYAMGWYRQAPGKERELVAAITSGGSTNYADSVKGRFTISRDNAKNTVYLQMNSLKPEDTAVYDCAAVPVRYRYSYGYYYWGQGTQVTVSS,high polyreactivity
2,QVQLVESGGGLVQAGGSLRLSCAASGRTFVLYAMGWYRQAPVKERELVASITWSGVSTTYADSVKGRFTISRDNAKNTVYLQMNSLKPEDTAVYYCAKDGLFEQGYPYQLGYWGQGTQVTVSS,low polyreactivity
3,QVQLVESGGGLVQAGGSLRLSCAASGRTFVLYTMGRYRQAPGKERELVAVGSTYYADSVKGRFTISRDNAKNTVYLQMNSLKPEDTAVYYCNKPGNYVWRRSWDFDYWGQGTQVTVSS,high polyreactivity
4,QVQLVESGGGLVQAGGSLRLSCAASGRTFVLYTMGWYRQAPGKERELVAVGSTYYADSVKGRFTISRDNAKNTVYLQMNSLIAEDTAVYYCAADIHWYGYYYWGLGTQVTVSS,high polyreactivity
5,QVQLVESGGGLVQAGGSLRLSCAASGRTFVLYTMGWYRQAPGKERELVAVGSTYYADSVKGRFTISRDNAKNTVYLQMNSLKPEDTAVYYCNKPGNYVWRRSWDFDYWGQGTQVTVSS,high polyreactivity
6,QVQLVESGGGLVQAGGSLRLSCAASGRTFVNNAMGWYRQAPGKERELVAAISRSGGRTYYADSVKGRFTISRDNAKNTVYLQMNSLKPEDTAVYYCAADSSYSRKYDYWGQGTQVTVSS,low polyreactivity
7,QVQLVESGGGLVQAGGSLRLSCAASGRTFVNNAMGWYRQAPGKERELVAAITRSGGRTYYADSVKGRFTISRDNAKNTVYLQMNSLKPEDTAVYYCATANVRLRHDDYWGQGTQVTVSS,high polyreactivity
8,QVQLVESGGGLVQAGGSLRLSCAASGRTFVNYTMGWYRQAPGKERELVAAVSWTGGRTYYADSVKGRFTISRDNAKNTVYLQMNSLKPEDTAVYYCATQPEKSGRPAIDPELYDYWGQGTQVTVSS,low polyreactivity
9,QVQLVESGGGLVQAGGSLRLSCAASGRTFVPNAMGWYRQAPGKERELVAAISDSGGSTYYADSVKGRFTISRDNAKNTVYLQMNSLKPEDTAVYYCATDGTTYVGWEHGFNYWGQGTQVTVSS,low polyreactivity
10,QVQLVESGGGLVQAGGSLRLSCAASGRTFVPYAMGRYRQAPGKERELVAAISARGSSTYYADSVKGRFTISRDNAKNTVYLQMNSLKPEDTAVYYCNAVGARVASATGMEYWGQGTQVTVSS,high polyreactivity
11,QVQLVESGGGLVQAGGSLRLSCAASGRTFVPYAMGWYRQAPGKERELVAAINSGGSTYYADSVKGRFSISRDNAKNTVYLQMNSLKPEDTAVYYCAAEYWNSRFSYAYGYWGQGTQVTVSS,high polyreactivity
12,QVQLVESGGGLVQAGGSLRLSCAASGRTFVPYAMGWYRQAPGKERELVAAITSSGGSTYYADSVKGRFTISRDNAKNTVYLQMNSLKPEDTAVYYCNALDGTLRTIYDYWGQGTQVTVSS,high polyreactivity
13,QVQLVESGGGLVQAGGSLRLSCAASGRTFVRNAMGWYRQAPGKERELVAAISSSGGSTYYADSVKGRFTISRDNAKNTVYLQMNSLKPEDTAVYYCAARSAFYYTYRSHYGWGMDYWGQGTQVTVSS,high polyreactivity
14,QVQLVESGGGLVQAGGSLRLSCAASGRTFVRNAMGWYRQAPGKERELVAGIRRGGTTNYADSVKGRFTISRDNAKNTVYLQMNSLKPEDTAVYYCNALYRYGWLYAPKYNSWGQGTQVTVSS,high polyreactivity
15,QVQLVESGGGLVQAGGSLRLSCAASGRTFVRYAMGRYRQAPGKERELVAAISGDGASTYYADSVKGRFTISRDNAKNTVYLQMNSLKPEDPAVYYCNARSIRRYYYPDYDYWGQGTQVTVSS,high polyreactivity
16,QVQLVESGGGLVQAGGSLRLSCAASGRTFVRYAMGWYRQAPGKERELVAAISRTGGTTYYADSVKGRFTISRDNAKNTVYLQMNSLKPEDTAVYYCNADPFYKYGYWGQGTKVTVSS,high polyreactivity
17,QVQLVESGGGLVQAGGSLRLSCAASGRTFVRYAMGWYRQAPGKERELVASIRTGGSTNYADSVKGRFTISRDNAKNTVYLQMNSLKPEDTAVYYCAAPRTYRPWGRMDYWGQGTQVTVSS,high polyreactivity
18,QVQLVESGGGLVQAGGSLRLSCAASGRTFVSHAMGWYRQAPGKERELVAAITNGGRTYYADSVKGRFTISRDNAKNTVYLQMNSLKPEDTAVYYCAAYVPTFKDRSRWYGRKYDYWGQGTQVTVSS,low polyreactivity
19,QVQLVESGGGLVQAGGSLRLSCAASGRTFVSNAMGWYRQAPGKERELVAAISFSGDSTYYADSVKGRFTISRDNAKKTVYLQMNSLKPEDTAVYYCRFYSYWSWLGREYDYWGQGTQVTVSS,low polyreactivity
20,QVQLVESGGGLVQAGGSLRLSCAASGRTFVSNAMGWYRQAPGKERELVAAISWSGSRTYYADSVKGRFTISRDNAKNTVYLQMNSLKPEDTAVYYCAAAKPKKSRGSAYEYWGQGTQVTVSS,high polyreactivity

# — the nanobody polyreactivity screen of Harvey et al. (2022)
